Earlier results, collected in article PMC4136965 (Journal of nuclear medicine : official publication, Society …, 2009).
Where two headings read alike, the source gives them in different places. Non-standard residues stand in square brackets, D forms with d. No end group written: not given here.

Test system: B16F10 xenografted melanoma
Settings: mouse, in vivo

Q: With “^18F-FB-Ac-Nle-Asp-His-D-Phe-Arg-Trp-Gly-Lys-NH2 ([dF]RWGK-NH2; not fully specified (N-terminus); also: 18F-FB label, position not given here) [^18F-FB-NAPamide]” as the substance, how does the Tumor uptake (1 h) read?
A: 1.19 ± 0.11 %ID/g

Q: What about the Tumor uptake (4 h) of the same substance?
A: 0.25 ± 0.05 %ID/g
